{"source": "patent US20240010747A1", "about": "“ANTI-MRP4 (ENCODED BY ABCC4 GENE) ANTIBODIES AND USES THEREOF” (Kenjockety Biotechnology, Inc., priority 2020, published 2024)", "molecules": {"B1": {"name": "C4.925: anti-ABCC4 antibody raised in rats; VH SEQ ID NO: 3, VL SEQ ID NO: 126 (antibody, V domains shown)", "VH": "EVQLVESGGGLVQPGRSLKLSCAASGFTFSDYYMAWVRQAPTKGLEWVAYINYDGGSTHYGDSVKGRFTISRDNEKSTLYLQMNSLRSEDMATYYCARENYGYNSFDYWGQGASVTVSS", "VL": "DIQVTQSPASLSASLGETISIECLTSEDISSYLTWYQQKPGKSPHLLIYGANSLQAGVPSRFSGSGSGTQYSLKISSMQPEDEGDYFCQQSYKFPLTFGSGTKLELK"}, "B2": {"name": "C4.1131 (antibody, V domains shown)", "VH": "EVKLVESDGGLVQPRKSLKLSCAASGFTFTDYYMAWVRQGPTMGLEWVATISNDGSTKYYRDSVKGRFTLSRDNAKTTLHLQMDSLRSEDTATYYCARLTIRYKGVMDAWGQGASVTVSS", "VL": "DVVMTQSPSHLAASPGESVSINCKASKNIYKYLAWYQQKPGKTNKLLIYSGSTLQSGTPSRFSGSGSGSDFTLTIRNLEPEDFGLYYCQHHNEYPPTFGGGTKLEIK"}, "B3": {"name": "C4.1134 (antibody, V domains shown)", "VH": "EVQLVESDGGLVQPGRSLKLSCAASGFTFSDFYMAWVRQAPTKGLEWIATISHDGRNTFYRDSVKGRFTISRDNAKRALYLQMDSLRSEDTATYYCASLTTRYKGVMEAWGQGASVTVSS", "VL": "B2 VL"}, "B4": {"name": "C4.1152 (antibody, V domains shown)", "VH": "B3 VH with Q3K, T50S, F59Y, A78T, T101A, E108G, A114T, S115L", "VL": "B2 VL"}, "B5": {"name": "C4.1054 (antibody, V domains shown)", "VH": "QVQLLQSGAALVKPGASVKMSCKPSGYTFTDYWVSWVKQSHGKSLEWIGEIYPNNGATNFNEKFKGKATLTVDKSTSTAYMELSRLTSEDSAIYYCPSRKYGYNWNFDYWGQGTMVTVSS", "VL": "DIVLTQSPALAVSLGQRATISCRARQSVSISRYNLMHWYQQKPGQQPKVLIYRASNLASGIPARFSGSGSGTDFTLTIDPVQADDIATYYCQQSRDSPWTFGGGTKLELK"}}, "note": "Positions count from the first letter of the chain named.", "data": [{"biological_target": "T1, human ABCC4 (Homo sapiens, UniProt O15439)", "T1 construct": "expressed in transfected cells", "T1 sequence (O15439 1-1325)": "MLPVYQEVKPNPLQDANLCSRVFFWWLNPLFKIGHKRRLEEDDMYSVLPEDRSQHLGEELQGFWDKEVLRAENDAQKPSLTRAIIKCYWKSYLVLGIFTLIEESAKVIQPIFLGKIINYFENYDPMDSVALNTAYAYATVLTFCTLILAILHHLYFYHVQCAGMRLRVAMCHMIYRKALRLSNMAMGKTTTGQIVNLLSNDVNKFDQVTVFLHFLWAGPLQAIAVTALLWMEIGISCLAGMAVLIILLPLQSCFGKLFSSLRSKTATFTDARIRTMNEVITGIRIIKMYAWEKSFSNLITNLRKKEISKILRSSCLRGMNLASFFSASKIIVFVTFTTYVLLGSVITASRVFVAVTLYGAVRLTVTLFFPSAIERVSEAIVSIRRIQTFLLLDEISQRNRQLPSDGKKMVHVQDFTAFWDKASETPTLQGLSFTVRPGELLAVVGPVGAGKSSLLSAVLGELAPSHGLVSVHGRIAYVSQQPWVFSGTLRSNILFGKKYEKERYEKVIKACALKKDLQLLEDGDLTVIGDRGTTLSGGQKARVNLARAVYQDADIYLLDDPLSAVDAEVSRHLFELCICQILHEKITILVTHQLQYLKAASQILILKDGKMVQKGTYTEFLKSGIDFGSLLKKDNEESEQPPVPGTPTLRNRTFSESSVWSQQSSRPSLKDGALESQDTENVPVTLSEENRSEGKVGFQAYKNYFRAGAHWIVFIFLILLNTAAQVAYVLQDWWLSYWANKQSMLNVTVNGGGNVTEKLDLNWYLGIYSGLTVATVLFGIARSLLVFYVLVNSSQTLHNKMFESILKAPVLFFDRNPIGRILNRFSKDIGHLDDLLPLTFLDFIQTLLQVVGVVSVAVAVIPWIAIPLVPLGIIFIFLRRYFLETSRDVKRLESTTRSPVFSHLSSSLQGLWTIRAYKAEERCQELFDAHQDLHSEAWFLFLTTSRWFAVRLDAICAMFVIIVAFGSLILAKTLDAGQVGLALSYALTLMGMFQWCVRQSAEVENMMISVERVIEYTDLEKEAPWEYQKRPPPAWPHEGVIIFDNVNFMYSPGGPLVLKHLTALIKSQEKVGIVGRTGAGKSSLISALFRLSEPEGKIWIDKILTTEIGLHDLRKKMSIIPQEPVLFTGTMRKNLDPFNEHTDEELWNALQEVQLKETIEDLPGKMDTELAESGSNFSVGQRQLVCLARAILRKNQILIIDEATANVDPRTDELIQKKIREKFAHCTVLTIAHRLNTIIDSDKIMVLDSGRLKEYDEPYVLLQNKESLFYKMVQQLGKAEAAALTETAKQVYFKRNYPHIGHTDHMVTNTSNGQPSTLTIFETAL", "assay": "Flow cytometry (FACS) binding to C6 cells stably transfected to express human ABCC4 (Table 3 study)", "conditions": "C6 cells stably transfected to express human ABCC4, FACS; Table 3", "experimental": "(§1) Binding titration of recombinant antibodies to ABCC4 transfectants was performed by serial dilution of antibodies from about 666 nM. Diluted antibody in flow cytometry buffer was incubated with cells on ice for 30 min. After 2 washes with flow cytometry buffer, bound antibody was detected with PE-labeled F(ab′)2 fragment goat anti-human IgG (Jackson ImmunoResearch) diluted 1:200 in flow cytometry buffer and incubated with cells for 20 min on ice. After 2 washes with flow cytometry buffer fluorescence was measured on an Attune N×T flow cytometer. Data were analyzed with GraphPad Prism 8.0 software to determine EC50's.\n(§2) Human embryonic kidney HEK 293T cells and murine C6 (ATCC CCL-107) were transfected with human or cynomolgus ABCC4 cDNA with C-terminal fused FLAG tag in a pMONO-hygro vector with Lipofectamine 3000 (Invitrogen #L3000001). The cells were treated with 0.2 mg/ml and 0.5 mg/ml hygromycin respectively for about 2 weeks while cultivated in DMEM and 10% FBS with 0.2 mg/ml hygromycin and 0.5 mg/ml hygromycin, respectively. The cells were washed with PBS, and stained with […] of anti-FLAG-PE after fixing and permeablization. Clones expressing ABCC4 were single-cell sorted into 200 μl DMEM with 10% FBS using a BD Aria FACS machine and cultivated in 96 well plates using standard techniques in an incubator at 37° C. and 5% CO 2. Two weeks later clones expressing high levels of ABCC4 were screened and amplified.\n(§3) Antibody binding to cells was evaluated by flow cytometry. Murine C6 cells stably transfected to express human or cynomolgus ABCC4 were washed once in flow cytometry buffer (PBS+2% FBS+0.02% sodium azide), resuspended at 2×10^6 cells/mL in flow cytometry buffer, and dispensed into 96-well microtiter plates at 0.1 mL/well. Recombinant antibodies were added to cells at 5 ug/mL for initial binding confirmation, or serially diluted from 100 ug/mL in flow cytometry buffer. After incubating cells on ice for 30 min, cells were washed twice with flow cytometry buffer. Bound antibody was detected with PE-labeled F(ab′)2 fragment goat anti-human IgG (Jackson ImmunoResearch) and evaluated on an Attune N×T flow cytometer. EC50 is calculated to be the concentration of antibody that gives half maximal response.\n(§4) Table 3 lists the following characteristics of the rat anti-ABCC4 antibodies tested: binding to C6 cells stably transfected to express human ABCC4 measured by FACS and binding to C6 cells stably transfected to express cynomolgus ABCC4 measured by FACS. Negative (−) is defined as maximum response (Rmax(MFI)) below background level. Positive (+) is defined as MFI>1000.", "values": [{"molecule": "B1", "Human ABCC4 binding": "+ (Positive (+) is defined as MFI>1000)"}]}, {"test_system": "cynomolgus ABCC4", "assay": "Flow cytometry (FACS) binding to C6 cells stably transfected to express cynomolgus ABCC4 (Table 3 study)", "parameters": "key to Cynomolgus ABCC4 binding: Negative (−) is defined as maximum response (Rmax(MFI)) below background level; Positive (+) is defined as MFI>1000", "conditions": "C6 cells stably transfected to express cynomolgus ABCC4, FACS; Table 3", "experimental": "as §1, §2, §3, §4", "values": [{"molecule": "B1", "Cynomolgus ABCC4 binding": "−"}]}, {"biological_target": "T1, human ABCC4", "assay": "Flow cytometry (FACS) binding to C6 cells stably transfected to express human ABCC4 (different experiment, Table 4)", "conditions": "C6 cells stably transfected to express human ABCC4, FACS; different experiment, Table 4", "summary_of_the_method": "(§5)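 Murine C6 cells stably expressing FLAG-tagged human or cynomolgus ABCC4 incubated 30 min on ice with antibodies, either 5 ug/mL or serially diluted from 100 ug/mL, in PBS+2% FBS+0.02% azide. Detection with PE anti-human IgG F(ab′)2 by flow cytometry; EC50 at half-maximal MFI; negative below background, positive >3× background.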", "values": [{"molecule": "B1", "Human ABCC4 binding": "+ (Positive (+)=MFI>3× background level)"}, {"molecule": "B2", "Human ABCC4 binding": "+ (Positive (+)=MFI>3× background level)"}, {"molecule": "B3", "Human ABCC4 binding": "+ (Positive (+)=MFI>3× background level)"}, {"molecule": "B4", "Human ABCC4 binding": "+ (Positive (+)=MFI>3× background level)"}, {"molecule": "B5", "Human ABCC4 binding": "+ (Positive (+)=MFI>3× background level)"}]}, {"biological_target": "T1, human ABCC4", "assay": "Flow cytometry (FACS) binding to C6 cells stably transfected to express human ABCC4 (different experiment, Table 4)", "conditions": "Table 4 study, stated in words", "summary_of_the_method": "as §5", "values": [{"molecule": "B2", "binding to human ABCC4 expressed on cell surface": "bind to both human and cynomolgus ABCC4"}, {"molecule": "B3", "binding to human ABCC4 expressed on cell surface": "bind to both human and cynomolgus ABCC4"}, {"molecule": "B4", "binding to human ABCC4 expressed on cell surface": "bind to both human and cynomolgus ABCC4"}, {"molecule": "B5", "binding to human ABCC4 expressed on cell surface": "bind to both human and cynomolgus ABCC4"}]}, {"test_system": "cynomolgus ABCC4", "assay": "Flow cytometry (FACS) binding to C6 cells stably transfected to express cynomolgus ABCC4 (different experiment, different C6.cC4 cell line, Table 4)", "parameters": "key to Cynomolgus ABCC4 binding: Negative (−)=Rmax (MFI) below background level; Positive (+)=MFI>3× background level", "conditions": "Table 4 study, stated in words", "summary_of_the_method": "as §5", "values": [{"molecule": "B2", "binding to cynomolgus ABCC4 expressed on cell surface": "bind to both human and cynomolgus ABCC4"}, {"molecule": "B3", "binding to cynomolgus ABCC4 expressed on cell surface": "bind to both human and cynomolgus ABCC4"}, {"molecule": "B4", "binding to cynomolgus ABCC4 expressed on cell surface": "bind to both human and cynomolgus ABCC4"}, {"molecule": "B5", "binding to cynomolgus ABCC4 expressed on cell surface": "bind to both human and cynomolgus ABCC4"}]}, {"test_system": "cynomolgus ABCC4", "assay": "Flow cytometry (FACS) binding to C6 cells stably transfected to express cynomolgus ABCC4 (different experiment, different C6.cC4 cell line, Table 4)", "parameters": "key to Cynomolgus ABCC4 binding: Negative (−)=Rmax (MFI) below background level; Positive (+)=MFI>3× background level", "conditions": "different C6.cC4 cell line, C6 cells stably transfected to express cynomolgus ABCC4, FACS; Table 4", "summary_of_the_method": "as §5", "values": [{"molecule": "B1", "Cynomolgus ABCC4 binding": "−"}, {"molecule": "B2", "Cynomolgus ABCC4 binding": "+ (Positive (+)=MFI>3× background level)"}, {"molecule": "B3", "Cynomolgus ABCC4 binding": "+ (Positive (+)=MFI>3× background level)"}, {"molecule": "B4", "Cynomolgus ABCC4 binding": "+ (Positive (+)=MFI>3× background level)"}, {"molecule": "B5", "Cynomolgus ABCC4 binding": "+ (Positive (+)=MFI>3× background level)"}]}, {"biological_target": "T2, human ABCC4 (human, UniProt O15439 1-1325)", "T2 construct": "Expressed on murine C6 cells stably transfected with human ABCC4 cDNA with C-terminal FLAG tag; also called MRP4; Multidrug resistance protein 4; not shown: C-terminal fused FLAG tag", "T2 sequence": "T1 sequence (O15439 1-1325)", "assay": "FACS, C6 cells stably expressing human ABCC4; + = MFI>3x background", "conditions": "not given", "experimental": "as §3, with “2×10\\hat{ }6” for “2×10^6”, “F(ab′)₂” for “F(ab′)2”", "values": [{"molecule": "B2", "binding result": "binds"}, {"molecule": "B3", "binding result": "binds"}, {"molecule": "B4", "binding result": "binds"}, {"molecule": "B5", "binding result": "binds"}]}]}
